Test results taken from publication PMC6637906.

Tested on: GST-TfmR (Xanthomonas citri subsp. citri 306)
Assay: EMSA
Conditions: LightShift Chemiluminescent EMSA Kit per manufacturer; 1-2 ng biotin DNA, 20 pmol GST-TfmR, 15 min (Fig. 6); buffer, salt, pH and temperature not stated

**Q.** For pmhpC/fadE promoter, which Kd is on record?
**A.** The Kd was 87 nM.
